From article doi:10.1101/2020.08.20.256677v1 (biorxiv, 2020)

Legend:
DnfA = DnfA (Alcaligenes ammonioxydans, UniProt A0ABX8SXK4); assay: biochemical
purified protein = substrate: NO; assay: purified protein; conditions: 480 μM FAD, 10 mM NADH, 21% O2, 0.6 μM DnfA, 30 °C, 25-400 μM NH2OH

| Kd (DnfA) [nM] | Molecule | Km (purified protein) [µM] | kcat (purified protein) [min⁻¹] |
| --- | --- | --- | --- |
| 160 ± 20 | NO [hydroxylamine] |  |  |
|  | DnfA (Alcaligenes ammonioxydans) (protein) MTIKSYETDDAVRNMLQKLSVLWKNRAAVNQELPDYNNLAFDPNKADFSECLLPFREHQAWLEAPEELKSQCLSYAWGIYNLKTIYVECNVVTPSCEDIIKTPPPSANRNLLQDVMSQALLDEALHTRMSIMACNYIYSMRGLQPLDFTNFNLVQWRNDILSQCSSESERRLTRFAIACASETLITDYLKTMAEDKSIQTICHEVTRTHAMDEWSHSSVFSFVASDIIHGLSQKEREHMRAVILRTVEMFANNEMGAWEKVFSMVNFPNARDILHDTGDSNEIGVYTGSVESLIERIGLNSKSGQAQAQDEQQEALQ | 48.1 ± 6.0 | 18.6 ± 1.2 |
